According to US20230212319A1, “NOVEL ANTIGEN BINDING DOMAINS AND SYNTHETIC ANTIGEN RECEPTORS INCORPORATING THE SAME” (University of Southern California, priority 2020, published 2023):

Key:
L363 cells = assay: JNG assay, co-culture with L363 cells; assay type: cell-based; details: co-culture with L363
Description: Cellular supernatant is collected and assayed for the induction of cytokines (e.g., IL2).
JNG (Jurkat cells expressing EGFP under an NFAT promoter) were infected with lentiviral vectors encoding different single chain and multi-chain SARs by spinfection in the presence of 8 µg/ml of Polybrene® (Sigma, Catalog no. H9268). The Jurkat-NFAT-GFP cells are engineered in such a way that the IL-2 promoter, which carries NFAT binding sites, is cloned upstream of the GFP gene. These cells have been used to study signaling via TCR and CAR. The different SARs were stably expressed in Jurkat NFAT-GFP cells by lentiviral mediated gene transfer, followed by selection with puromycin or blasticidin. No drug selection was used in case the construct lacked an antibiotic resistance gene. The SAR-expressing Jurkat-NFAT-GFP cells were cocultured with the target cells at E:T ratio of approximately 1:2 for approximately 4 hours to 18 hours. When the interaction between SIRs and their target antigen results in activation of the NFAT pathway, GFP expression is induced. […] GFP expression was monitored by FACS analysis. The Jurkat-NFAT-GFP (parental) cells were used as control. The structure of different constructs can be determined based on their names. […] The sequence of the other constructs in the table can be similarly determined from their names and by referring to the different Tables of this disclosure that provide the names and SEQ ID NO of the different modules. Alternatively, the composition and modular architecture of the different SAR constructs can be determined from their sequences by bioinformatics tools, including using nucleic acid and amino acids homology searches. A SAR is considered positive in the assay in case the SAR expressing Jurkat-NFAT-GFP cells show greater % GFP positive cells when cultured with the target cell line as compared to parental Jurkat-NFAT-GFP cells. […] In general, the number +/-, +, 2+, 3+, 4+, 5+ refer to approximately 5%, 10%, 20%, 30%, 40% and 50% GFP positive cells. The % of GFP induction in the above assay is dependent not only the relative strength of the SAR but also, among other factors, on the relative level of expression of the SAR in the JNG cells and the relative level of expression of the target antigen in the target cell line. To control for the difference in gene transduction efficiency of the different SAR constructs, the experiment was conducted with JNG cells transduced with SAR constructs co-expressing a drug resistance gene (e.g., puromycin or PAC) followed by drug selection to generate a stable population of SAR-expressing cells. It is to be noted that the drug resistance gene (e.g., PAC) in the SAR constructs is optional and in vivo studies were conducted with SAR constructs lacking the PAC gene.

RAJI cells = assay: JNG assay, co-culture with RAJI cells; assay type: cell-based; details: JNG cells expressing construct, co-culture with Raji
Summary of the method: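 Jurkat NFAT-GFP (JNG) cells stably transduced with SARs by lentivirus, with drug selection where the construct carried a resistance gene, then co-cultured with target cells at E:T ~1:2 for ~4–18 h. % GFP-positive cells measured by FACS against parental JNG; +/- to 5+ correspond to ~5–50% GFP-positive.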

| Molecule | NFAT-GFP ASSAY: L363 (L363 cells) | NFAT-GFP ASSAY: Raji (RAJI cells) |
| --- | --- | --- |
| 21994 (protein) MALPVTALLLPLALLLHAARPQVQLVESGGGLVQPGGSLRLSCAASGFTFTNHAMSWVRQAPGKGLELVSSISGNGRTTYYADSVKGRFTISRDISKNTLDLQMNSLRAEDTAVYYCAKDGGETLVDSRGQGTLVTVSSLEDLKNVFPPEVAVFEPSEAEISHTQKATLVCLATGFYPDHVELSWWVNGKEVHSGVCTDPQPLKEQPALNDSRYCLSSRLRVSATFWQNPRNHFRCQVQFYGLSENDEWTQDRAKPVTQIVSAEAWGRADCGFTSESYQQGVLSATILYEILLGKATLYAVLVSALVLMAMVKRKDSRGRAKRSGSGATNFSLLKQAGDVEENPGPTSMDWIWRILFLVGAATGAHSFEVQLLESGGGLVQPGGSLRLSCAASGFIFSSYAMSWVRQAPGKGQEWVSGVSGTGVNTYYADSVKGRFTISRDNSKNTLYLQMNSLRAEDTAVYYCASGKGWDSGSWYEDYRGQGTLVTVSSTRIQNPDPAVYQLRDSKSSDKSVCLFTDFDSQTNVSQSKDSDVYITDKCVLDMRSMDFKSNSAVAWSNKSDFACANAFNNSIIPEDTFFPSPESSCDVKLVEKSFETDTNLNFQNLSVIGFRILLLKVAGFNLLMTLRLWSSRAKRSGSGVKQTLNFDLLKLAGDVESNPGPSRGHMTEYKPTVRLATRDDVPRAVRTLAAAFADYPATRHTVDPDRHIERVTELQELFLTRVGLDIGKVWVADDGAAVAVWTTPESVEAGAVFAEIGPRMAELSGSRLAAQQQMEGLLAPHRPKEPAWFLATVGVSPDHQGKGLGSAVVLPGVEAAERAGVPAFLETSAPRNLPFYERLGFTVTADVEVPEGPRTWCMTRKPGA | L363 (+) (refer to approximately 5%, 10%, 20%, 30%, 40% and 50% GFP positive cells) |  |
| 22247 (protein) MALPVTALLLPLALLLHAARPACPQLGPYELWELSHGTGAVVRGAEFDIQMTQSPSSLSASVGDRVTITCKASDHINNWLAWYQQKPGQAPKLLIYGATTLETGVPSRFSGSGSGTDYTLTISSLQPEDFATYYCQQSWNTPWTFGQGTKLEIKRLEDLKNVFPPEVAVFEPSKAEIAHTQKATLVCLATGFYPDHVELSWWVNGKEVHSGVCTDPQPLKEQPALNDSRYCLSSRLRVSATFWQNPRNHFRCQVQFYGLSENDEWTQDRAKPVTQIVSAEAWGRADCGITSASYHQGVLSATILYEILLGKATLYAVLVSALVLMAMVKRKDSRGRAKRSGSGATNFSLLKQAGDVEENPGPTSATMDWIWRILFLVGAATGAHSGPQVQLQESGGGLAQAGGSLRLSCAASGRTFSMGWFRQAPGKEREFVAAITYSGGSPYYASSVRGRFTISRDNAKNTVYLQMNSLKPEDTAVYYCAANPTYGSDWNAENWGQGTQVTVSSGSGGGGSGGGGSGGGGSFEQVQLQQPGAELVKPGASVKMSCKASGYAFSSYWINWMKQKPGQGLEWIGQIYPGDGDTNYNGKFKGRATLTADTSSSTAYMQLSSLTSEDSAVYFCARSITTVVGCAMDYWGQGTSVTVSSTRIQNPDPAVYQLRDSKSSDKSVCLFTDFDSQTNVSQSKDSDVYITDKCVLDMRSMDFKSNSAVAWSNKSDFACANAFNNSIIPEDTFFPSSDVPCDVKLVEKSFETDTNLNFQNLSVIGFRILLLKVAGFNLLMTLRLWSSRAKRSGSGVKQTLNFDLLKLAGDVESNPGPSRGHMTEYKPTVRLATRDDVPRAVRTLAAAFADYPATRHTVDPDRHIERVTELQELFLTRVGLDIGKVWVADDGAAVAVWTTPESVEAGAVFAEIGPRMAELSGSRLAAQQQMEGLLAPHRPKEPAWFLATVGVSPDHQGKGLGSAVVLPGVEAAERAGVPAFLETSAPRNLPFYERLGFTVTADVEVPEGPRTWCMTRKPGA |  | Raji (2+) (refer to approximately 5%, 10%, 20%, 30%, 40% and 50% GFP positive cells) |
| 22211 (protein) MALPVTALLLPLALLLHAARPDIQMTQSPSSLSASVGDRVTITCKASDHINNWLAWYQQKPGQAPKLLIYGATTLETGVPSRFSGSGSGTDYTLTISSLQPEDFATYYCQQSWNTPWTFGQGTKLEIKRLEDLKNVFPPEVAVFEPSEAEISHTQKATLVCLATGFYPDHVELSWWVNGKEVHSGVCTDPQPLKEQPALNDSRYCLSSRLRVSATFWQNPRNHFRCQVQFYGLSENDEWTQDRAKPVTQIVSAEAWGRADCGFTSESYQQGVLSATILYEILLGKATLYAVLVSALVLMAMVKRKDSRGRAKRSGSGATNFSLLKQAGDVEENPGPTSATMDWIWRILFLVGAATGAHSGPQLGPYELWELSHGSGGGGSGGGGSGGGGSFEQVQLQQPGAELVKPGASVKMSCKASGYAFSSYWINWMKQKPGQGLEWIGQIYPGDGDTNYNGKFKGRATLTADTSSSTAYMQLSSLTSEDSAVYFCARSITTVVGCAMDYWGQGTSVTVSSTRIQNPDPAVYQLRDSKSSDKSVCLFTDFDSQTNVSQSKDSDVYITDKCVLDMRSMDFKSNSAVAWSNKSDFACANAFNNSIIPEDTFFPSPESSCDVKLVEKSFETDTNLNFQNLSVIGFRILLLKVAGFNLLMTLRLWSSRAKRSGSGVKQTLNFDLLKLAGDVESNPGPSRGHMTEYKPTVRLATRDDVPRAVRTLAAAFADYPATRHTVDPDRHIERVTELQELFLTRVGLDIGKVWVADDGAAVAVWTTPESVEAGAVFAEIGPRMAELSGSRLAAQQQMEGLLAPHRPKEPAWFLATVGVSPDHQGKGLGSAVVLPGVEAAERAGVPAFLETSAPRNLPFYERLGFTVTADVEVPEGPRTWCMTRKPGA |  | 2+ (refer to approximately 5%, 10%, 20%, 30%, 40% and 50% GFP positive cells) |
| 22214 (protein) MALPVTALLLPLALLLHAARPACPYINIYNAEPANPSEKNSPTQYAYGTGPQGIFGQPGYINEFDIQMTQSPSSLSASVGDRVTITCKASDHINNWLAWYQQKPGQAPKLLIYGATTLETGVPSRFSGSGSGTDYTLTISSLQPEDFATYYCQQSWNTPWTFGQGTKLEIKRLEDLKNVFPPEVAVFEPSKAEIAHTQKATLVCLATGFYPDHVELSWWVNGKEVHSGVCTDPQPLKEQPALNDSRYCLSSRLRVSATFWQNPRNHFRCQVQFYGLSENDEWTQDRAKPVTQIVSAEAWGRADCGITSASYHQGVLSATILYEILLGKATLYAVLVSALVLMAMVKRKDSRGRAKRSGSGATNFSLLKQAGDVEENPGPTSATMDWIWRILFLVGAATGAHSGPQVQLQESGGGLAQAGGSLRLSCAASGRTFSMGWFRQAPGKEREFVAAITYSGGSPYYASSVRGRFTISRDNAKNTVYLQMNSLKPEDTAVYYCAANPTYGSDWNAENWGQGTQVTVSSGSGGGGSGGGGSGGGGSFEQVQLQQPGAELVKPGASVKMSCKASGYAFSSYWINWMKQKPGQGLEWIGQIYPGDGDTNYNGKFKGRATLTADTSSSTAYMQLSSLTSEDSAVYFCARSITTVVGCAMDYWGQGTSVTVSSTRIQNPDPAVYQLRDSKSSDKSVCLFTDFDSQTNVSQSKDSDVYITDKCVLDMRSMDFKSNSAVAWSNKSDFACANAFNNSIIPEDTFFPSSDVPCDVKLVEKSFETDTNLNFQNLSVIGFRILLLKVAGFNLLMTLRLWSSRAKRSGSGVKQTLNFDLLKLAGDVESNPGPSRGHMTEYKPTVRLATRDDVPRAVRTLAAAFADYPATRHTVDPDRHIERVTELQELFLTRVGLDIGKVWVADDGAAVAVWTTPESVEAGAVFAEIGPRMAELSGSRLAAQQQMEGLLAPHRPKEPAWFLATVGVSPDHQGKGLGSAVVLPGVEAAERAGVPAFLETSAPRNLPFYERLGFTVTADVEVPEGPRTWCMTRKPGA |  | Raji (+) (refer to approximately 5%, 10%, 20%, 30%, 40% and 50% GFP positive cells) |
| 22248 (protein) MALPVTALLLPLALLLHAARPDIQMTQSPSSLSASVGDRVTITCKASDHINNWLAWYQQKPGQAPKLLIYGATTLETGVPSRFSGSGSGTDYTLTISSLQPEDFATYYCQQSWNTPWTFGQGTKLEIKRLEDLKNVFPPEVAVFEPSEAEISHTQKATLVCLATGFYPDHVELSWWVNGKEVHSGVCTDPQPLKEQPALNDSRYCLSSRLRVSATFWQNPRNHFRCQVQFYGLSENDEWTQDRAKPVTQIVSAEAWGRADCGFTSESYQQGVLSATILYEILLGKATLYAVLVSALVLMAMVKRKDSRGRAKRSGSGATNFSLLKQAGDVEENPGPTSATMDWIWRILFLVGAATGAHSGPQLGPYELWELSHGSGPLGIAGIFEQVQLQQPGAELVKPGASVKMSCKASGYAFSSYWINWMKQKPGQGLEWIGQIYPGDGDTNYNGKFKGRATLTADTSSSTAYMQLSSLTSEDSAVYFCARSITTVVGCAMDYWGQGTSVTVSSTRIQNPDPAVYQLRDSKSSDKSVCLFTDFDSQTNVSQSKDSDVYITDKCVLDMRSMDFKSNSAVAWSNKSDFACANAFNNSIIPEDTFFPSPESSCDVKLVEKSFETDTNLNFQNLSVIGFRILLLKVAGFNLLMTLRLWSSRAKRSGSGVKQTLNFDLLKLAGDVESNPGPSRGHMTEYKPTVRLATRDDVPRAVRTLAAAFADYPATRHTVDPDRHIERVTELQELFLTRVGLDIGKVWVADDGAAVAVWTTPESVEAGAVFAEIGPRMAELSGSRLAAQQQMEGLLAPHRPKEPAWFLATVGVSPDHQGKGLGSAVVLPGVEAAERAGVPAFLETSAPRNLPFYERLGFTVTADVEVPEGPRTWCMTRKPGA |  | Raji (3+) (refer to approximately 5%, 10%, 20%, 30%, 40% and 50% GFP positive cells) |
